Measured values reported in US20240166756A1 (KAOHSIUNG MEDICAL UNIVERSITY, published 2024).

T1: CXCR2 antigen peptide (NICR2 peptide) (human, not fully specified)
T1 construct: The immunogen was this peptide conjugated with ovalbumin at its C-terminus ('-C-Ovalbumin')
T1 peptide: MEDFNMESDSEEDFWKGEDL

B1: humanized anti-CXCR2 monoclonal antibody (NICR2-5) (antibody, human IgG1, kappa, V domains shown)
VH: QITLKESGPTLVKPTQTLTLTCTFSGFSLRTSGMGVGWIRQPPGKALEWLAHIWWDDDKRYKPDLKSRLTITKDTSKNQVVLTMTNMDPVDTATYYCARLGLRLRTMDYWGQGTLVTVSS
VL: DIVMTQTPLSLSVTPGQPASISCRSSLSLVHSNGDTYLHWYLQKPGQSPQLLIYKVSNRFSGVPDRFSGSGSGTDFTLKISRVEAEDVGVYYCSQSTHVPTFGQGTKLEIKR
notes: CDRs cloned into human IgG1 vector; Conjugated with Alexa Fluor-488 for flow cytometry; also called anti-CXCR2 mAb; humanized anti-CXCR2 mAb (NICR2-5)

What was measured:
[1] = target: human C-X-C chemokine receptor 2 (CXCR2) (human) (UniProt P25025); assay: flow cytometry, Alexa Fluor-488-conjugated control IgG1 on fixed HMC-1 cells (80 µg/ml per paragraph 49)
[2] = target: human C-X-C chemokine receptor 2 (CXCR2) (human) (UniProt P25025); assay: flow cytometry, Alexa Fluor-488-conjugated control IgG1 on fixed MiaPaCa II cells (80 µg/ml per paragraph 49)
[3] = target: human C-X-C chemokine receptor 2 (CXCR2) (human) (UniProt P25025); assay: flow cytometry, Alexa Fluor-488-conjugated control IgG1 on fixed Panc-1 cells (80 µg/ml per paragraph 49)
[4] = target: T1, CXCR2 antigen peptide (NICR2 peptide); assay: SPR (Biacore), antibody flowed over the NICR2 peptide, Langmuir 1:1 fit
Description: Equilibrium affinity and rate constants derived from a Langmuir 1:1 binding kinetic analysis. The interactions between the humanized anti-CXCR2 mAb and the CXCR2 antigen peptide (NICR2 peptide) were detected by using SPR. The humanized anti-CXCR2 mAb flowed through the CXCR2 antigen peptide (NICR2 peptide) at the indicated concentrations. Data were corrected for nonspecific background binding. All data are representative of three independent experiments. […] Data shown is representative of 3 independent experiments.
The binding affinity of the humanized anti-CXCR2 monoclonal antibody (NICR2-5) was further investigated by surface plasmon resonance (SPR) Biacore technique. […] The binding of the humanized anti-CXCR2 mAb (NICR2-5) to cell surface receptor was analyzed by flow cytometry. Control IgG1 or humanized anti-CXCR2 mAb (NICR2-5) were conjugated with Alexa Fluor-488 fluorescent dye. Cancer cells were fixed with 3.5% formaldehyde for 15 min at room temperature. Fixed cells were incubated with fluorescent dye-conjugated IgG1 (80 μg/ml), or different concentrations of humanized anti-CXCR2 mAb (NICR2-5) (0, 40, 80 μg/ml) at 4° ° C. for 1 h. Cells were washed with phosphate-buffered saline (PBS) three times and subjected to flow cytometric analysis by using Attune NxT Flow Cytometer.

Chain of human C-X-C chemokine receptor 2 (CXCR2) (human) (P25025 whole entry): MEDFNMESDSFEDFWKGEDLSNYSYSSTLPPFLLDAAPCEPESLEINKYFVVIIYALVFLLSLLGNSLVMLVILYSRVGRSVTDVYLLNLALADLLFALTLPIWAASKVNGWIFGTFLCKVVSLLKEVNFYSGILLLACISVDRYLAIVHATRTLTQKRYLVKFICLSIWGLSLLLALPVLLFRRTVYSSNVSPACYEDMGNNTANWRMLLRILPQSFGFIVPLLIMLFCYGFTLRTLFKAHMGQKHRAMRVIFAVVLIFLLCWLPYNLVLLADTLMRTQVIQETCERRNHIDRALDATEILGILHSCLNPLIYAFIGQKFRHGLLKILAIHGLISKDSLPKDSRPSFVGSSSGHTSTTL

Molecule | Gated (%) [1] | Gated (%) [2] | Gated (%) [3] | Kd [4]
hIgG (antibody) | 6.6% | 9.3% | 8.2% | 
B1 |  |  |  | 300 pM
